The assay has as its target human insulin (disulfide-bonded heterodimer) (human) (UniProt P01308). Kind of assay: cell-based or functional assay.

Sequence of human insulin (disulfide-bonded heterodimer) (human) (P01308 90-110 limits assumed, chain 1 of 2): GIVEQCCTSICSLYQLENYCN
Sequence of human insulin (disulfide-bonded heterodimer) (human) (P01308 25-54 limits assumed, chain 2 of 2): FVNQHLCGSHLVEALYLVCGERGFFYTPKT

B1: ORP100S (fully monocysteinic human thioredoxin-1, reduced form) (enzyme)
chain: VKQIESKTAFQEALDAAGDKLVVVDFSATWCGPSKMIKPFFHSLSEKYSNVIFLEVDVDDSQDVASESEVKSMPTFQFFKKGQKVGEFSGANKEKLEATINELV
On to B1, for which the Relative % insulin reduction (ORP100S Ox 0 : Red 100) (% relative to maximum) came out at 100, the Relative % insulin reduction (ORP100S mixture Ox 25 : Red 75) (% relative to maximum) came out at 72, the Relative % insulin reduction (ORP100S mixture Ox 50 : Red 50) (% relative to maximum) came out at 51 and the Relative % insulin reduction (ORP100S mixture Ox 75 : Red 25) (% relative to maximum) was 36. The maximum insulin heterodimer reaction with fully reduced material (RP-HPLC insulin reduction assay) is 45%.

B2: oxidized ORP100S treated with iodacetamide (IA) (enzyme)
chain: B1 chain
modifications: Cys32 oxidized / treated with iodoacetamide, as printed: 'oxidized ORP100S treated with iodacetamide (IA)'
The molecule B2 displayed a Relative % insulin reduction (ORP100S Ox 100 : Red 0) (% relative to maximum) of 8.

Values taken from US20230071765A1, “COMPOSITIONS HAVING THIOREDOXIN ACTIVITY AND RELATED METHODS” (ORPRO THERAPEUTICS, INC., priority 2020, published 2023).
